Data as given in patent publication US20230348867.

Tests used:
Experiment in all cases: cell_activity
[1] = tested on: SB100X (Variant 27) K14R,K33A,R115H,R214D,K215A,E216V,N217Q,M243H,T314N (synthetic); settings: human CD34+ HSC, GFP+ CFU-E
[2] = tested on: SB Variant 6 K33A,T83A,R214D,K215A,E216V,N217Q,G317E (synthetic); settings: HeLa transposition
[3] = tested on: SB Variant 8 K14R,T83A,I100L,M243Q (synthetic); settings: HeLa transposition
[4] = tested on: SB Variant 2 (3D5) K33A,R115H,R214D,K215A,E216V,N217Q,M243H (synthetic); settings: HeLa transposition
[5] = tested on: SB10 Sleeping Beauty transposase (synthetic (reconstructed from fish)); settings: HeLa transposition, G418 colonies, reference
[6] = tested on: SB Variant 14 K14R,K30R,R143L,A205K,H207V,K208R,D210E,R214D,K215A,E216V,N217Q,M243H (synthetic); settings: HeLa transposition
[7] = tested on: SB Variant 4 K13D,K33A,T83A,H207V,K208R,D210E,M243Q (synthetic); settings: HeLa transposition
[8] = tested on: SB Variant 16 K14R,K30R,A205K,H207V,K208R,D210E,R214D,K215A,E216V,N217Q,M243H,E267D (synthetic); settings: HeLa transposition
[9] = tested on: SB Variant 1 (2G6/6G2) K14R,R214D,K215A,E216V,N217Q (synthetic); settings: HeLa transposition
[10] = tested on: SB Variant 5 K13A,K33A,R214D,K215A,E216V,N217Q (synthetic); settings: HeLa transposition
[11] = tested on: SB Variant 12 K14R,T83A,M243Q,T314N (synthetic); settings: HeLa transposition
[12] = tested on: SB Variant 18 K14R,K30R,A205K,H207V,K208R,D210E,R214D,K215A,E216V,N217Q,M243H,G317E (synthetic); settings: HeLa transposition
[13] = tested on: SB Variant 20 K14R,K30R,R147E,A205K,H207V,K208R,D210E,R214D,K215A,E216V,N217Q,M243H,T314N (synthetic); settings: HeLa transposition
[14] = tested on: SB Variant 15 K14R,K30R,R147E,A205K,H207V,K208R,D210E,R214D,K215A,E216V,N217Q,M243H (synthetic); settings: HeLa transposition
[15] = tested on: SB M3a (Variant 30) K13A,K33A,T83A,R214D,K215A,E216V,N217Q (synthetic); settings: HeLa transposition
[16] = tested on: SB Variant 17 K14R,K30R,A205K,H207V,K208R,D210E,R214D,K215A,E216V,N217Q,M243H,T314N (synthetic); settings: HeLa transposition
[17] = tested on: SB Variant 21 K14R,K30R,R143L,A205K,H207V,K208R,D210E,R214D,K215A,E216V,N217Q,M243H,E267D (synthetic); settings: HeLa transposition
[18] = tested on: SB Variant 7 (12B1) K14R,T83A,M243Q (synthetic); settings: HeLa transposition
[19] = tested on: SB Variant 23 K14R,K30R,R143L,A205K,H207V,K208R,D210E,R214D,K215A,E216V,N217Q,M243H,G317E (synthetic); settings: HeLa transposition
[20] = tested on: SB Variant 3 (6A5) K14R,K30R,A205K,H207V,K208R,D210E,R214D,K215A,E216V,N217Q,M243H (synthetic); settings: HeLa transposition

| Substance | binding signal [1] [fold vs SB10] | binding signal [2] [fold vs SB10] | binding signal [3] [fold vs SB10] | binding signal [4] [fold vs SB10] | binding signal [5] [fold vs SB10] | binding signal [6] [fold vs SB10] | binding signal [7] [fold vs SB10] | binding signal [8] [fold vs SB10] | binding signal [9] [fold vs SB10] | binding signal [10] [fold vs SB10] | binding signal [11] [fold vs SB10] | binding signal [12] [fold vs SB10] | binding signal [13] [fold vs SB10] | binding signal [14] [fold vs SB10] | binding signal [15] [fold vs SB10] | binding signal [16] [fold vs SB10] | binding signal [17] [fold vs SB10] | binding signal [18] [fold vs SB10] | binding signal [19] [fold vs SB10] | binding signal [20] [fold vs SB10] |
| --- | --- | --- | --- | --- | --- | --- | --- | --- | --- | --- | --- | --- | --- | --- | --- | --- | --- | --- | --- | --- |
| pT2-HB-CAG-GFP SB transposon | 100 |  |  |  |  |  |  |  |  |  |  |  |  |  |  |  |  |  |  |  |
| pTNeo (SB inverted repeats flanking NeoR) |  | 20 | 5 | 30 | 1 | 40 | 20 | 30 | 20 | 20 | 10 | 25 | 40 | 30 | 10 | 25 | 50 | 15 | 35 | 30 |
